In patent publication US20150132313A1:
Each block holds one substance with its values, some of them ahead of it.

How the values were obtained:
[1] = molecular target: IFNα2a (human) (UniProt P01563); test: cell-based or functional assay
[2] = molecular target: human leukocyte IFN; test: cell-based or functional assay

MEDI-545, sequence (VH): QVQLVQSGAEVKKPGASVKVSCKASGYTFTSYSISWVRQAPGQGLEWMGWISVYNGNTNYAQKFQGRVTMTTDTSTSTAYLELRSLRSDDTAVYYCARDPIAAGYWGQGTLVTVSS
MEDI-545, sequence (VL): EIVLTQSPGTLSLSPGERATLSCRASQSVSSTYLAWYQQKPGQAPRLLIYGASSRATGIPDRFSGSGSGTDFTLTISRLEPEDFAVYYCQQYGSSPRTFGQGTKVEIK

HERC5 gene expression (Average), 107 IFN + 545 (107 IFN alone 41.12; 107 VEH 1.00) [1]: 6.29
HERC5 gene expression (Average), 163 IFN + 545 (163 IFN alone 75.81; 163 VEH 1.05) [1]: 7.83
HERC5 gene expression (Average), 175 IFN + 545 (175 IFN alone 74.58; 175 VEH 1.19) [1]: 6.89
IFIT1 gene expression, Average (TAQMAN, whole blood + 100 IU IFNα2a + MEDI-545; donor 107; IFN alone 80.21) (relative expression) [1]: 13.1
IFIT1 gene expression, Average (TAQMAN, whole blood + 100 IU IFNα2a + MEDI-545; donor 163; IFN alone 51.65) (relative expression) [1]: 7.6
IFIT1 gene expression, Average (TAQMAN, whole blood + 100 IU IFNα2a + MEDI-545; donor 175; IFN alone 82.98) (relative expression) [1]: 8.4
IFIT3 gene expression, Average (TAQMAN, whole blood + 100 IU IFNα2a + MEDI-545; donor 107; IFN alone 38.43) (relative expression) [1]: 6.78
IFIT3 gene expression, Average (TAQMAN, whole blood + 100 IU IFNα2a + MEDI-545; donor 163; IFN alone 25.94) (relative expression) [1]: 4.58
IFIT3 gene expression, Average (TAQMAN, whole blood + 100 IU IFNα2a + MEDI-545; donor 175; IFN alone 35.02) (relative expression) [1]: 5.28
IL6ST gene expression, Average (TAQMAN, whole blood + 100 IU IFNα2a + MEDI-545; donor 107; IFN alone 3.54) (relative expression) [1]: 2.62
IL6ST gene expression, Average (TAQMAN, whole blood + 100 IU IFNα2a + MEDI-545; donor 163; IFN alone 7.69) (relative expression) [1]: 4.18
IL6ST gene expression, Average (TAQMAN, whole blood + 100 IU IFNα2a + MEDI-545; donor 175; IFN alone 7.62) (relative expression) [1]: 2.95
IRF7 gene expression, Average (TAQMAN, whole blood + 100 IU IFNα2a + MEDI-545; donor 107; IFN alone 18.53) (relative expression) [1]: 3.42
IRF7 gene expression, Average (TAQMAN, whole blood + 100 IU IFNα2a + MEDI-545; donor 163; IFN alone 17.16) (relative expression) [1]: 2.92
IRF7 gene expression, Average (TAQMAN, whole blood + 100 IU IFNα2a + MEDI-545; donor 175; IFN alone 24.65) (relative expression) [1]: 2.43
LY6E gene expression, Average (TAQMAN, whole blood + 100 IU IFNα2a + MEDI-545; donor 107; IFN alone 19.09) (relative expression) [1]: 3.5
LY6E gene expression, Average (TAQMAN, whole blood + 100 IU IFNα2a + MEDI-545; donor 163; IFN alone 13.52) (relative expression) [1]: 4.8
LY6E gene expression, Average (TAQMAN, whole blood + 100 IU IFNα2a + MEDI-545; donor 175; IFN alone 19.32) (relative expression) [1]: 3.74
MARCKS gene expression, Average (TAQMAN, whole blood + 100 IU IFNα2a + MEDI-545; donor 163; IFN alone 2.59) (relative expression) [1]: 1.55
MARCKS gene expression, Average (TAQMAN, whole blood + 100 IU IFNα2a + MEDI-545; donor 175; IFN alone 2.59) (relative expression) [1]: 0.55
OAS1 gene expression (Average), 107 IFN + 545 (107 IFN alone 15.11; 107 VEH 1.00) [1]: 3.45
OAS1 gene expression (Average), 163 IFN + 545 (163 IFN alone 14.19; 163 VEH 0.77) [1]: 3.05
OAS1 gene expression (Average), 175 IFN + 545 (175 IFN alone 22.09; 175 VEH 1.62) [1]: 4.04
OAS3 gene expression (Average), 107 IFN + 545 (107 IFN alone 49.04; 107 VEH 1.00) [1]: 7.03
OAS3 gene expression (Average), 163 IFN + 545 (163 IFN alone 42.01; 163 VEH 0.49) [1]: 14.6
OAS3 gene expression (Average), 175 IFN + 545 (175 IFN alone 37.87; 175 VEH 1.27) [1]: 3.92
RAB8B gene expression, Average (TAQMAN, whole blood + 100 IU IFNα2a + MEDI-545; donor 163; IFN alone 2.20) (relative expression) [1]: 1.18
RAB8B gene expression, Average (TAQMAN, whole blood + 100 IU IFNα2a + MEDI-545; donor 175; IFN alone 2.63) (relative expression) [1]: 1.15
RSAD2 gene expression (Average), 107 IFN + 545 (107 IFN alone 109.64; 107 VEH 1.00) [1]: 9.88
RSAD2 gene expression (Average), 163 IFN + 545 (163 IFN alone 71.47; 163 VEH 0.56) [1]: 4.39
RSAD2 gene expression (Average), 175 IFN + 545 (175 IFN alone 126.27; 175 VEH 1.88) [1]: 8.43
neutralization of ISG15, USP18 and IFIT2 overexpression in keratinocytes stimulated with 150 I.U./mL leukocyte IFN [2]: 70 to 100%
Substance: MEDI-545 (antibody)

HERC5 gene expression (Average), 107 IFN + R347 (107 IFN alone 41.12; 107 VEH 1.00) [1]: 55
HERC5 gene expression (Average), 163 IFN + R3437 (163 IFN alone 75.81; 163 VEH 1.05) [1]: 95.4
HERC5 gene expression (Average), 175 IFN + R347 (175 IFN alone 74.58; 175 VEH 1.19) [1]: 98.2
OAS1 gene expression (Average), 107 IFN + R347 (107 IFN alone 15.11; 107 VEH 1.00) [1]: 17.8
OAS1 gene expression (Average), 163 IFN + R3437 (163 IFN alone 14.19; 163 VEH 0.77) [1]: 22.4
OAS1 gene expression (Average), 175 IFN + R347 (175 IFN alone 22.09; 175 VEH 1.62) [1]: 15.2
OAS3 gene expression (Average), 107 IFN + R347 (107 IFN alone 49.04; 107 VEH 1.00) [1]: 76.9
OAS3 gene expression (Average), 163 IFN + R3437 (163 IFN alone 42.01; 163 VEH 0.49) [1]: 52.6
OAS3 gene expression (Average), 175 IFN + R347 (175 IFN alone 37.87; 175 VEH 1.27) [1]: 34.9
RSAD2 gene expression (Average), 107 IFN + R347 (107 IFN alone 109.64; 107 VEH 1.00) [1]: 107
RSAD2 gene expression (Average), 163 IFN + R3437 (163 IFN alone 71.47; 163 VEH 0.56) [1]: 115
RSAD2 gene expression (Average), 175 IFN + R347 (175 IFN alone 126.27; 175 VEH 1.88) [1]: 91
Substance: R347 (antibody)
